The target of experiment [1] is T1, EGFR (Homo sapiens, UniProt P00533). Kind of experiment: BLI.
Experiment [2] concerns the target T1, EGFR. Description: SPR.

SFMPLSIPIMCKMLSKC (biotinylated EGFR) displayed a Kd in experiment [1] of 229 nM.

Take SFMPLSIPIMCKMLSKC: the Kd in experiment [2] was 148 nM.

The values are drawn from publication PMC12957798 (2025).
